# Measured values reported in US11918645B2, “Vaccines against hepatitis B virus” (priority 2012, dated 2024).
# How the values were obtained:
# [1] = tested on: PBMC from chronic HBV-infected subjects; test: IFNγ ELISpot of PBMC restimulated with individual unconjugated HBV long peptides (Example 5); format: cell-based, human; conditions: for T cell responses (IFNγ ELISpot), level and frequency of responders: HBeAg-negative inactive carriers and HBeAg-negative treated subjects, 5 μg/mL, 18 h, FIGS. 9 and 10; for T cell responses (IFNγ ELISpot) grouped by infecting HBV genotype: genotypes A, B, C & D, FIG. 11; for T cell responses (IFNγ ELISpot) grouped by ethnic background: three ethnic groups, FIG. 12
# Description: One vial of PBMC from each subject (containing 1×10^7 cells) was thawed and lymphocyte numbers were determined using a Scepter™ automated handheld cell counter. PBMC were cultured in 2 mL culture medium (CM: RPMI-1640 Glutamax supplemented with 5% human AB serum) in 24 well cell culture plates at a concentration of 1×10^6 cells/mL for a total of 11 days. Cells were stimulated with a mixture of the nine HBV-derived long peptides described in Example 3.
# Each peptide was used at a final concentration of 1 μg/peptide/mL. On Day 4, IL-2 and IL-15 were added to the cultures to final concentrations of 10 IU/mL and 10 ng/mL respectively. On Day 10, cells were washed twice in CM and cultured with 10 IU/mL IL-2 for 1 additional day. On Day 11, cells were washed twice in CM, counted and incorporated in a human IFNγ (interferon-gamma) ELISpot assay or intracellular cytokine staining.
# Cells from short term cultures were plated in triplicate wells at 5×10^4 PBMC/well. Final antigen concentrations used were: 5 μg/mL for each individual peptides; PHA positive control: 1 μg/mL.
# HLA-A*0201 = HLA-A*0201 (Homo sapiens, UniProt P04439, D140Y/D185E/D98H/E176V/E277Q/G131W/G231S/I119V/I121R/I166T/I218V/L300P/L318F/N151K/N90K/P208A/P217A/Q86G/Q94H/R138H/R169H/T345S); test: ProImmune REVEAL MHC class I binding assay of nonamers; conditions: score as % of positive control peptide
# Source text: (§1) The number of HLA class I binding registers contained in each peptide may be determined by determining the ability of the peptide to bind to a range of frequently occurring HLA class I molecules. HLA class I binding may be measured using the ProImmune REVEAL® MHC-peptide Binding Assay (ProImmune Ltd, Oxford, UK). The REVEAL™ MHC peptide-binding assay measures the ability of each peptide to stabilize the ternary MHC-peptide complex for […], HLA-A*0201, HLA¬A*0301, HLA-A*2402, HLA-B*0702, HLA-B*0801, HLA-B*3501 representative of main HLA class I supertypes. Each tested peptide is given a score relative to a pass/fail control peptide and also compared to a positive control peptide.
# (§2) Detection is based on the presence or absence of the native conformation of the MHC-peptide complex. The highly frequent HLA class I alleles (HLA-A*0201, A*0301, A*1101, A*2402, B*0702, B*0801, and B*3501) were selected. Binding to MHC molecules was compared to that of a known T-cell epitope, a positive control peptide, with very strong binding properties. […] The score of the test peptide is reported quantitatively as a percentage of the signal generated by the positive control peptide, and the peptide is indicated as having a putative pass or fail result. Good binders are considered to be those peptides with scores 45% of the positive control as defined by ProImmune.
# HLA-A*0301 = target: T1, HLA-A*0301 (Homo sapiens, UniProt P04439); test: as above; conditions: score as % of positive control peptide
# T1 construct: purchased ProImmune
# Source text: as §1, §2
# HLA-A*1101 = target: T2, HLA-A*1101 (Homo sapiens, UniProt P04439, A114D/D185E/E176A/F33Y/L180Q/S129P/T187R); test: as above; conditions: score as % of positive control peptide
# T2 construct: purchased ProImmune
# Source text: as §1, §2
# HLA-A*2402 = HLA-A*2402 (Homo sapiens, UniProt P04439, D101N/D140Y/D185E/E176V/E190D/F33S/G103R/G107R/I119L/I121M/I306V/K335N/L105A/L180Q/L300P/N151K/N90K/Q86E/Q94H/R106L/R138H/R89G/T104I/T345S/V100E/W191G/Y123F); test: as above; conditions: score as % of positive control peptide
# Source text: as §1, §2
# HLA-B*0702 = target: T3, HLA-B*0702 (Homo sapiens, UniProt P01889); test: as above; conditions: score as % of positive control peptide
# T3 construct: purchased ProImmune
# Source text: as §1, §2
# HLA-B*0801 = HLA-B*0801 (Homo sapiens, UniProt P01889, A93T/A95T/D138N/E176V/E187T/K202T/Q94N/R180D/S35A/V36M/Y33D/Y91F); test: as above; conditions: score as % of positive control peptide
# Source text: as §1, §2
# HLA-B*3501 = HLA-B*3501 (Homo sapiens, UniProt P01889, A329T/A93T/A95T/C349S/D201E/D98Y/E176V/E187L/E204Q/E69T/I218V/K202T/L119I/Q94N/R155S/R180L/S121R/S35A/S48A/T118I/V127L/V306I/V36M/Y140S/Y91F); test: as above; conditions: score as % of positive control peptide
# Source text: as §1, §2
# HLA class I alleles = test: ProImmune REVEAL MHC class I binding assay, summary over the seven alleles; design: species or system human; conditions: for Number of allele (b): number of class I alleles for which positive binding was detected; for Number of HLA binders (a): total number binding epitopes detected for each long peptide, seven class I alleles
# Source text: as §1, §2
# [2] = tested on: HLA-DR1 (α1*01:01;β1*01:01); test: ProImmune REVEAL MHC class II binding assay of long peptides; design: species or system human; conditions: percentage of the signal of the positive control peptide; positive binding score >=15%
# Source text: (§3) The highly frequent HLA class II alleles HLA-DR1 (α1*01:01;β1*01:01), HLA-DR15 (α1*01:01;β1*15:01), HLA-DR3 (α1*01:01;β1*03:01), HLA-DR4 (α1*01:01;β1*04:01), HLA-DR11 (α1*01:01;β1*11:01), HLA-DR13 (α1*01:01;β1*13:01), and HLA-DR7 (α1*01:01;β1*07:01) were selected. Each peptide was given a score relative to the positive control peptide, which is a known T-cell epitope. The score of the test peptide is reported quantitatively as a percentage of the signal generated by the positive control peptide, and the peptide is indicated as having a putative pass or fail result. Good binders are considered to be those peptides with scores >=15% of the positive control as defined by Proimmune.
# [3] = tested on: HLA-DR3 (α1*01:01;β1*03:0); test: as above; design: species or system human; conditions: percentage of the signal of the positive control peptide; positive binding score >=15%
# Source text: as §3
# [4] = target: T4, HLA-DR15 (α1*01:01;β1*15:01) (Homo sapiens, UniProt P01903+P01911); test: as above; conditions: percentage of the signal of the positive control peptide; positive binding score >=15%
# T4 construct: purchased ProImmune
# Source text: as §3
# [5] = target: T5, HLA-DR7 (α1*01:01;β1*07:01) (Homo sapiens, UniProt P01903+P01911, A100R/A102G/A103Q/D57E/D86V/E43K/F76Y/K127E/L162R/M171V/P40G/Q125H/Q99D/R195Q/R33Q/R42Y/R54Q/S133A/S149N/S66F/T210M/V115G/Y107V/Y59L/Y89S); test: as above; conditions: percentage of the signal of the positive control peptide; positive binding score >=15%
# T5 construct: purchased ProImmune
# Source text: as §3
# [6] = target: T6, HLA-DR13 (α1*01:01;β1*13:01) (Homo sapiens, UniProt P01903+P01911, A100E/A169T/K41T/L162R/M171V/P40S/Q125H/Q178H/Q39Y/Q99D/R42S/S66N/W38E/Y61H); test: as above; conditions: percentage of the signal of the positive control peptide; positive binding score >=15%
# T6 construct: purchased ProImmune
# Source text: The highly frequent HLA class II alleles HLA-DR1 (α1*01:01;β1*01:01), HLA-DR15 (α1*01:01;β1*15:01), HLA-DR3 (α1*01:01;β1*03:01), HLA-DR4 (α1*01:01;β1*04:01), HLA-DR11 (α1*01:01;β1*11:01), HLA-DR13 (α1*01:01;β1*13:01), and HLA-DR7 (α1*01:01;β1*07:01) were selected. Each peptide was given a score relative to the positive control peptide, which is a known T-cell epitope.
# HLA class II alleles = test: ProImmune REVEAL MHC class II binding assay, summary over the seven alleles; design: species or system human; conditions: number of class II alleles for which positive binding (score >=15%) was detected
# Source text: as §3
# BALB/c mice = test: Immunogenicity in mice, IFNγ ELISpot of splenocytes, FP02.1 vs NP02.1 (Example 6); format: in vivo; conditions: mice immunised with FP02.1 or NP02.1, restimulation 5 μg/mL/peptide, FIG. 15
# Description: The immunogenicity in mice of FP02.1 (containing nine fluorocarbon-conjugated peptides) was compared to NP02.1 (containing nine equivalent unconjugated peptides).
# Alternatively, splenocytes were stimulated in vitro with 5 μg/mL/peptide of nine individual peptides for 18 hours in an ELISpot assay. The number of IFNγ+ spot forming cells (SFC) was counted. Plates then were washed with PBS, incubated with an IFNγ detection peroxidase-labelled antibody, followed by a substrate, according to the manufacturer's instructions.
# T6 sequence (P01903 26-216, other chains not shown): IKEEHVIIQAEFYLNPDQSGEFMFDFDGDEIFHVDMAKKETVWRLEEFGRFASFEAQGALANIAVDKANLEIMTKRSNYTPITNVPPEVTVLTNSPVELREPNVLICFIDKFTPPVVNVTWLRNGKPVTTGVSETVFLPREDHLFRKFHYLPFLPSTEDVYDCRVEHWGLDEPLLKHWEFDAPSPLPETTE
Substance,"T cell responses (IFNγ ELISpot), level and frequency of responders [1]",T cell responses (IFNγ ELISpot) grouped by infecting HBV genotype [1],T cell responses (IFNγ ELISpot) grouped by ethnic background [1],"Number of nonamers having a binding score >= 45%, HLA-A*0201 (HLA-A*0201)","Number of nonamers having a binding score >= 45%, HLA-A*0301 (HLA-A*0301)","Number of nonamers having a binding score >= 45%, HLA-A*1101 (HLA-A*1101)","Number of nonamers having a binding score >= 45%, HLA-A*2402 (HLA-A*2402)","Number of nonamers having a binding score >= 45%, HLA-B*0702 (HLA-B*0702)","Number of nonamers having a binding score >= 45%, HLA-B*0801 (HLA-B*0801)","Number of nonamers having a binding score >= 45%, HLA-B*3501 (HLA-B*3501)",Number of allele (b) (HLA class I alleles),Number of HLA binders (a) (HLA class I alleles),"binding score, HLA-DR1 (α1*01:01;β1*01:01) [2] [%]","binding score, HLA-DR3 (α1*01:01;β1*03:0) [3] [%]","binding score, HLA-DR15 (α1*01:01;β1*15:01) [4] [%]","binding score, HLA-DR7 (α1*01:01;β1*07:01) [5] [%]","binding score, HLA-DR13 (α1*01:01;β1*13:01) [6] [%]",Number of allele (a) (HLA class II alleles),IFNγ response of splenocytes to each individual peptide component (BALB/c mice),IFNγ response of splenocytes to each individual peptide component (BALB/c mice; listed as P376)
"NP797(K): unconjugated HBV long peptide, core 780-814 (C to S at 792) + KKK",highest level of responses in both patient populations and in the highest proportion of subjects,"highest responses across all four genotypes A, B, C & D",highest responses across all three ethnic groups,6,1,1,5,4,3,2,7,22,0.20,0.00,1.14,0.01,0.00,0,–,–
"NP277(K): unconjugated HBV long peptide, polymerase 260-293 + KKK (RVSWPKFAVPNLQSLTNLLSSNLSWLSLDVSAAFYHKKK; HBV CONSENSUS SEQUENCE)",–,–,–,6,0,0,5,3,1,3,5,18,0.49,0.10,0.18,0.01,0.00,1,–,–
"NP376: unconjugated HBV long peptide, polymerase 359-398 (C to S substitution at 393) (KLHLYSHPIILGFRKIPMGVGLSPFLLAQFTSAISSVVRR; HBV CONSENSUS SEQUENCE)",highest level of responses in both patient populations and in the highest proportion of subjects,"highest responses across all four genotypes A, B, C & D",highest responses across all three ethnic groups,8,0,1,10,4,6,6,6,35,27.71,0.00,6.29,–,0.00,–,immune responses were dominated by four out of the 9 peptides contained in the vaccine,only observed with the formulation containing the fluorocarbon-conjugated peptides
